Legend:
Tie 2 [1] = molecular target: T1, Tie 2 (Homo sapiens, UniProt Q02763); experiment: In vitro pull down assay of Tie 2 from EaHy926 cell lysate; assay type: binding; parameters: a cell lysate of EaHy926 endothelial cells (which express high levels of Tie 2) was prepared; endogenous in cells; host or cells: EaHy926 endothelial cells
Protocol: In this example, the ability of Vasculotide to bind the Tie 2 receptor, despite the engineered modifications, was tested using an in vitro pull down assay. In the pull down assay, a cell lysate of EaHy926 endothelial cells (which express high levels of Tie 2) was prepared in Phospho Lipase Cγ lysis buffer (50 mM Hepes buffer pH 7.5, 150 mM NaCl, 10% glycerol, 1% Triton X-100, 1.5 mM MgCl2, 1.0 mM EGTA, 10 mM NaPPi, […], 2 mM Na3VO4, 1× aprotinin, 1× leupeptin and 1×PMSF). The whole cell lysate was mixed with either unclustered biotinylated Vasculotide or biotinylated irrelevant peptide. The biotinylated peptides then were isolated with avidin agarose and subsequently tested for their ability to precipitate Tie 2 via standard immunoblot analysis using anti-Tie 2 antibody.

[2] = system: Cos 1 fibroblast cells and C166 EC's (phenotypically null for Tie 2); experiment: MAPK and AKT phosphorylation in Ad-EGFP infected cells null for Tie 2; assay type: cell-based; conditions: EGFP infected Cos 1 and C166 cells
Protocol: To more formally address the specificity of clustered Vasculotide for the Tie 2 receptor, reconstitution experiments were performed in Cos 1 fibroblast cells and C166 EC's, both of which are phenotypically null for Tie 2. Cos 1 and C166 cells (ATCC) were maintained on 10-cm-diameter plates (Nunc) in Dulbecco's modified Eagle's medium (DMEM) supplemented with 10% (FBS), 1× penicillin, 1× streptomycin, and 200 mM L-glutamine (all Gibco BRL) in a 5% CO2 incubator at 37° C. Cos1 or C166 cells were infected (MOI 30) overnight with adenoviruses encoding one of either enhanced green fluorescent protein (EGFP) or Tie 2. Infection efficiency was confirmed by epifluorescence (EGFP), or by immunoblot (Tie 2).
Cells infected with recombinant adenovirus encoding EGFP or Tie 2 were either left unstimulated or stimulated with Vasculotide, clustered Vasculotide or avidin for 16 hours, after which MTS reagent was applied to all samples for 4 hours. Absorbance at 492 was measured using a multiwell plate reader (Power Wave X340, Biotek Instruments Inc). To broadly examine the potential that clustered Vasculotide was activating Tie 2-independent downstream signalling pathways, the activation of MAPK and AKT in the EGFP infected cells was examined. […] This fact precluded us from stimulating these cells any further with Vasculotide or clustered Vasculotide.

Tie 2 [3] = molecular target: T1, Tie 2; experiment: Tie 2 activation (pY992 Tie 2 immunoblot) in HUVEC; assay type: cell-based; parameters: downstream signalling pathways in human umbilical vein endothelial cells (HUVEC) (Cambrex, N.J.); host or cells: HUVEC, passage 3-9
Protocol: Having established that Vasculotide was able to bind Tie 2 (see Example 2), the ability of Vasculotide, when clustered with avidin in a 4:1 ratio (Vasculotide:avidin), to activate the Tie 2 receptor was tested by examining several well established downstream signalling pathways in human umbilical vein endothelial cells (HUVEC) (Cambrex, N.J.). Such signalling pathways are described in, for example, Kim, I. et al. (2000) Circ. Res. 9:952-959; Fujikawa, K. et al. (1999) Exp. Cell. Res. 2:663-672; Babaei, S. et al. (2003) Am. J. Pathol. 6:1927-1936.
HUVEC were grown on 6-well or 10 cm plates (Nunc) coated with gelatin (Sigma). HUVEC were cultured in F12 growth medium containing 10% fetal bovine serum (FBS), 0.1 mg/ml heparin sulphate, 1× penicillin, 1× streptomycin, 1× glutamine, VEGF 10 ng/ml, EGF 10 ng/ml, bFGF 5 ng/ml. All HUVEC were used between passage 3-9.
(§1) HUVEC were stimulated with one of either Ang 1 (R&D Systems), Vasculotide, avidin or clustered Vasculotide (preclustered with a 4:1 molar ratio of peptide:avidin in PBS for 2 hours at 4° C.) at various doses. Stimulations with Vasculotide were performed in full serum containing growth media for 15 minutes unless otherwise indicated. Cell lysate preparations and immunoblot analysis were performed by standard methods. Antibodies used for immunoblotting (in this and/or subsequent Examples) were monoclonal anti Tie 2 (Pharminogen), polyclonal anti pY992 Tie 2, (Cell Signaling Technology), polyclonal anti MAPK (Cell Signaling Technology), monoclonal anti phospho MAPK (Cell Signaling Technology), polyclonal anti AKT (Cell Signaling Technology), polyclonal anti pS473 AKT (Cell Signaling Technology), monoclonal anti pS1177 eNOS (BD Biosciences), polyclonal anti pY397 FAK (Biosource), polyclonal anti FAK (Santa Cruz), polyclonal anti smooth muscle actin-Cy3 direct conjugate (Dako), polyclonal anti PECAM (Pharminogen) and polyclonal anti smooth muscle actin (Sigma).
To examine Tie 2 activation kinetics, HUVEC were stimulated with native Ang 1 or clustered Vasculotide for various times. Stimulation was performed in 10% FBS. […] Overall, activation of the receptor by either Ang 1 or clustered Vasculotide followed a very similar time course with phosphorylation returning to almost basal levels sometime after 2 hours.

[4] = system: focal adhesion kinase (FAK); experiment: FAK activation in HUVEC (pY397 FAK immunoblot); assay type: cell-based, human; conditions: time course
Protocol: as §1
To examine Tie 2 activation kinetics, HUVEC were stimulated with native Ang 1 or clustered Vasculotide for various times. Stimulation was performed in 10% FBS. […]

CD1 mice = assay type: in vivo; conditions: 50 μg intravenously, peripheral blood 24 hours post injection
Protocol: In this example, the effect of systemically administered Vasculotide on circulating endothelial cells was examined. Three month old CD1 mice were injected intravenously with either PBS (vehicle) or 50 μg of clustered Vasculotide. Twenty four hours post injection, peripheral blood was collected on heparin via cardiac puncture and nonhematopoietic circulating endothelial cells (CECs) were sorted using a four channel FACS approach. CECs were defined as CD13^+/VEGFR-2^+/CD45^−, Viable (propidium iodide). Cell numbers reported are number of viable cells/μl of peripheral blood. Total white blood cell count was also determined using a hemocytometer.

T1 sequence (Q02763 23-1124): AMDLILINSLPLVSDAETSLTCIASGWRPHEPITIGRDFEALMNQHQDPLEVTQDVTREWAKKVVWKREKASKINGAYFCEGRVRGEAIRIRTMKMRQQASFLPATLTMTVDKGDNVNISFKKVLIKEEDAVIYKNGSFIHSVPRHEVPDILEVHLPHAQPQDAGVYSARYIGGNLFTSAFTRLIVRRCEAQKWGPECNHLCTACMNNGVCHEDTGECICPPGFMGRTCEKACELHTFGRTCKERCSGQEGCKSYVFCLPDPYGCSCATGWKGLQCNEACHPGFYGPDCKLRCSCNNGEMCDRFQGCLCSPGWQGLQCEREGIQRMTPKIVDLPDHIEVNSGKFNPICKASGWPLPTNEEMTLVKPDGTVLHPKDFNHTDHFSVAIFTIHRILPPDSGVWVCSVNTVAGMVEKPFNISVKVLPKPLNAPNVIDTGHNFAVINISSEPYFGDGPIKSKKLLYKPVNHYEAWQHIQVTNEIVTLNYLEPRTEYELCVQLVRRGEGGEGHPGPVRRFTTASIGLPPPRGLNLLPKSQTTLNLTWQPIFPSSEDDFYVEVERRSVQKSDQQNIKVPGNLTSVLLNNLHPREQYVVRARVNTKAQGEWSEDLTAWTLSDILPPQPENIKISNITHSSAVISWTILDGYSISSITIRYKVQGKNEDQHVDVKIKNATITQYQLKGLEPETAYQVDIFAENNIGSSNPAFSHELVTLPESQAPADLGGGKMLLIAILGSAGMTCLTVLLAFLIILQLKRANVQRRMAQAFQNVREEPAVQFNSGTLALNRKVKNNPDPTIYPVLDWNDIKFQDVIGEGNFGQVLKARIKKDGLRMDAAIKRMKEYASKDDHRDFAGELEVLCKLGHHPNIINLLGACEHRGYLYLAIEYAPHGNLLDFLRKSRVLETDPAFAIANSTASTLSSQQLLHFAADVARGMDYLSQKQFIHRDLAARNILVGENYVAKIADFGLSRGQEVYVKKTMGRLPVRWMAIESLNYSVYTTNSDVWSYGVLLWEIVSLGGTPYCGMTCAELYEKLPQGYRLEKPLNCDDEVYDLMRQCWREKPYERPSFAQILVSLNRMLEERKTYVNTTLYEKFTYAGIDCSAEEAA

## clustered Vasculotide: Vasculotide clustered with avidin in a 4:1 ratio, an obligate tetrameric compound
Tie 2 [1]; ten fold excess, preclustered with soluble avidin
  Competition for available Tie 2 in the pull down: able to abolish this interaction
[2]
  Phosphorylation of MAPK or AKT above non-stimulated samples: Neither Vasculotide nor clustered Vasculotide significantly induced phosphorylation of MAPK or AKT
Tie 2 [3]; 2 nM, 10% FBS
  Ability to activate Tie 2 phosphorylation, time course, versus Ang 1 (400 ng/ml): compared favorably to Ang 1
Tie 2 [3]; 50 nM
  Tie 2 receptor activation at high concentration: not capable of activating Tie 2 receptor activity
Tie 2 [3]; 15 minutes
  Optimal concentration for Tie 2 activation (pY992 Tie 2): 5-10 nM
[4]
  Activation of FAK: no significant effect

## Vasculotide: biotinylated T7 peptide-PEG: Cys-His-His-His-Arg-His-Ser-Phe (SEQ ID NO: 2) conjugated to EZ-link-PEO-maleimide-biotin
Tie 2 [1]; EaHy926 whole cell lysate, unclustered biotinylated peptide
  Precipitation of Tie 2 (avidin agarose pull down, anti-Tie 2 immunoblot): able to precipitate Tie 2
CD1 mice
  Number of circulating endothelial cells: decrease in the number of circulating endothelial cells
[2]
  Phosphorylation of MAPK or AKT above non-stimulated samples: Neither Vasculotide nor clustered Vasculotide significantly induced phosphorylation of MAPK or AKT
Tie 2 [3]; avidin alone and unclustered Vasculotide
  Tie 2 phosphorylation without preclustering: only when preclustered with avidin was Vasculotide able to stimulate Tie 2 phosphorylation
